In PMC13043311, “2′-O-Methyl-guanosine RNA fragments antagonize TLR7 and TLR8 to limit autoimmunity” one finds Kd data, which are given here for one molecule.

Positions count from the first letter of the chain named.

Holding throughout (conditions): protein: recombinant; chain copies: 2; single-stranded
One series has as its target T1, TLR7 WT (mmTLR7) (Macaca mulatta, UniProt B3Y653 27-839).
T1 sequence: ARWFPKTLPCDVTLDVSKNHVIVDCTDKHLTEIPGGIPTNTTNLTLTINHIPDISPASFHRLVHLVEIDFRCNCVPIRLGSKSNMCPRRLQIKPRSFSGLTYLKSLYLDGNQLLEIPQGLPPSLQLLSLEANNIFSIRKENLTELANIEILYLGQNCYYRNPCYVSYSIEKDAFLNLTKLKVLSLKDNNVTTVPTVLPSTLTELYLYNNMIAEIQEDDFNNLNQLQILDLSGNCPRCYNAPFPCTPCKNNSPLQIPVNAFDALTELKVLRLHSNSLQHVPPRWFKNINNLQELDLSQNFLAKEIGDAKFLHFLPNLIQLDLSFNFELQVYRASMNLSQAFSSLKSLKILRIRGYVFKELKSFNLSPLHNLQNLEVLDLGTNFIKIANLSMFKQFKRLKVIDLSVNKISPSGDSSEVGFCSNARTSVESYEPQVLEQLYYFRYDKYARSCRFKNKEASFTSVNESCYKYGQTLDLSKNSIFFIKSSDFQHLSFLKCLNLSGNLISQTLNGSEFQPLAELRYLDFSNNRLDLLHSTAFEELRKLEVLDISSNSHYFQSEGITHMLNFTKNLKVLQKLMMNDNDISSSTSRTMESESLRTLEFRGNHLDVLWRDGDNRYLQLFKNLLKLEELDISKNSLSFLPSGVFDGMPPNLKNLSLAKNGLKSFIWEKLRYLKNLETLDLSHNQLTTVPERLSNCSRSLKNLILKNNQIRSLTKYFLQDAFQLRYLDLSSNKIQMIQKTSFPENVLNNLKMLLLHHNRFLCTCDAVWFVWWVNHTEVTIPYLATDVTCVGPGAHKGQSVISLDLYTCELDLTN
In words: SPR; control of the nucleoside series; mean computed from runs 1±0.3, 3±0.9, 5±0.8; SPR with recombinant TLR7/TLR8; buffer, pH and temperature not in the material. On the technique in general: SPR reads the build-up and loss of mass on a sensor chip optically.

The next series addresses T2, TLR7 F507L (Macaca mulatta, UniProt B3Y653 27-839, F507L).
T2 sequence: T1 sequence with F481L
Kind of series: SPR; mean computed from runs 16±2, 18±2, 20±6; SPR with recombinant TLR7/TLR8; buffer, pH and temperature not in the material.

A further series deals with T3, TLR7 F507S (Macaca mulatta, UniProt B3Y653 27-839, F507S).
T3 sequence: T1 sequence with F481S
Kind of series: SPR; mean computed from runs 36±1, 46±2, 42±6; SPR with recombinant TLR7/TLR8; buffer, pH and temperature not in the material.

B1: mGrUrC PS (XNA)
RNA: GUC
modifications: 2'-OMe G1, RNA U2 C3; phosphorothioate linkages
One may read the Kd as a measure of binding affinity in units of concentration. Turning to B1, the Kd with TLR7 WT (mmTLR7) stood at 3 µM; with TLR7 F507L, 18 µM; with TLR7 F507S, 41.3 µM.
